This note sets out measurements from EP4711384A1 (WIO Bioscience Co., Ltd., dated 2026).

Assay [1] concerns the target T1, human IL-18R1 ECD-His (human) (UniProt Q13478).
T1 sequence: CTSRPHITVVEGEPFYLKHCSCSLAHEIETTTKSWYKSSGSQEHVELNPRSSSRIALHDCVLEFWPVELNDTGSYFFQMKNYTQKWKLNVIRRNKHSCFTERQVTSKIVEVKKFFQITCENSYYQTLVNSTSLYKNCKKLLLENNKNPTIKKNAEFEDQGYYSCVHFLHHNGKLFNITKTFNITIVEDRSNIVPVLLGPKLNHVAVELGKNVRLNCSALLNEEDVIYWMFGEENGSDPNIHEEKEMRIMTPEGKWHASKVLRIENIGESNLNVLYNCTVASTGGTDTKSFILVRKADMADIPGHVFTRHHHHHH
In words: phage ELISA, 4-fold dilution. In general terms: ELISA stands for enzyme-linked immunosorbent assay.

Assay [2] addresses T2, human IL-18RAP ECD-His (human) (UniProt O95256).
T2 sequence: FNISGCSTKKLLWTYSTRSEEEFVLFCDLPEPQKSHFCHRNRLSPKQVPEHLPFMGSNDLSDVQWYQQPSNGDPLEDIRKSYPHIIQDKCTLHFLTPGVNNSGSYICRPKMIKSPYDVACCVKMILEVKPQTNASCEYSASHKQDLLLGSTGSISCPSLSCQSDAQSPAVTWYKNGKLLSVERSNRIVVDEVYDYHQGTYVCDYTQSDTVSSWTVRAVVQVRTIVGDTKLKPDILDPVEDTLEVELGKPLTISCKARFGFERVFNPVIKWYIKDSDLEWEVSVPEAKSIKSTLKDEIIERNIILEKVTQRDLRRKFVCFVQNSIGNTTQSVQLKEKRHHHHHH
In words: phage ELISA, 4-fold dilution.

In assay [3] the target is T1, human IL-18R1 ECD-His (human). In words: phage ELISA, 16-fold dilution.
Assay [4] deals with T2, human IL-18RAP ECD-His (human). As to the kind of experiment: phage ELISA, 16-fold dilution.
Assay [5] deals with human IL-18R1 and IL-18RAP on IL-18 Reporter HEK 293 Cells (human) (UniProt Q13478). As to the kind of experiment: cell-based or functional assay.
The target is the same in assay [6]. As to the kind of experiment: cell-based or functional assay. This is another data set of the same source.
In assay [7] the target is T3, human IL-18R1 and IL-18RAP on IL-18 Reporter HEK 293 Cells (human, UniProt Q13478 19-541; O95256 20-599).
T3 sequence (looked up) 1: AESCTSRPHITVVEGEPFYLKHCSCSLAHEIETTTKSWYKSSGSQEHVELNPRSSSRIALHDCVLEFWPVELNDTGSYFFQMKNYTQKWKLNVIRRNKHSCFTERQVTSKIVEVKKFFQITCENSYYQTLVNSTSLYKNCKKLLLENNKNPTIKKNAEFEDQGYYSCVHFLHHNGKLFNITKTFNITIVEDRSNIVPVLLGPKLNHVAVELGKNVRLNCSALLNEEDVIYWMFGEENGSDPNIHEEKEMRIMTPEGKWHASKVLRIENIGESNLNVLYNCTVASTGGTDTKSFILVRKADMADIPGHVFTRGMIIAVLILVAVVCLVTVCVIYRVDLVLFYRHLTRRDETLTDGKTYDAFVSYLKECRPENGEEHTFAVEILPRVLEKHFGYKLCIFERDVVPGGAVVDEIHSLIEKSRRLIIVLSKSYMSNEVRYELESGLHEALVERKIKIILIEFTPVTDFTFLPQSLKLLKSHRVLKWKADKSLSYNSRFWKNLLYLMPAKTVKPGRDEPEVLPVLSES
T3 sequence (looked up) 2: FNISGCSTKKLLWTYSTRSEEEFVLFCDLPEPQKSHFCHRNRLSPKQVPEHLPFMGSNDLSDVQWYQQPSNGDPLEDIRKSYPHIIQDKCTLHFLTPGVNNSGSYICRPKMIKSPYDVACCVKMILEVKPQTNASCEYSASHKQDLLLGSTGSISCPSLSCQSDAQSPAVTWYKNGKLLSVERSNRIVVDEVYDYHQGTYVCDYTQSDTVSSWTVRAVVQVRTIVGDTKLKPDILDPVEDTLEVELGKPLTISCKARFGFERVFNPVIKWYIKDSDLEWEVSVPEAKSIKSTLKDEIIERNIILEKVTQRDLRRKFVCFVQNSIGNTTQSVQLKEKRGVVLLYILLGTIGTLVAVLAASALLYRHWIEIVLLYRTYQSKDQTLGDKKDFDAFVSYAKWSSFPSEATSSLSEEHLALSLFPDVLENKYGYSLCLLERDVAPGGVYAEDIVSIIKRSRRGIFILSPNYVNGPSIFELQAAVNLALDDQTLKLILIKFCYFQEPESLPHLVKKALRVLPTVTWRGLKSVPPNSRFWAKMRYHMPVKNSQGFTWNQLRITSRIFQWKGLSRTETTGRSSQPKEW
In words: cell-based or functional assay.

Assay [8] concerns the target T3, human IL-18R1 and IL-18RAP on IL-18 …. As to the kind of experiment: cell-based or functional assay. This is another data set of the same source.
Assay [9] addresses T1, human IL-18R1 ECD-His (human). In words: sandwich ELISA, IL-18RAP ECD-hFc detection.

Where “and” joins values, the source holds several entries; their conditions need not be identical. Identical values can stand only once. Like-named read-outs stand apart in the source and are kept apart here.

For the molecule NC, the ELISA OD in [1] stood at 0.059; in assay [2], 0.06; in [3], 0.055; in assay [4], 0.068.
Take “recombinant human IL-18 (from UniProt Q14116 37-193) (ligand)”: in assay [5], the EC50 worked out at 0.121 ng/mL and the Top630nm stood at 2.27. In assay [6], this molecule showed an EC50 of 0.117 ng/mL; an EC50, SEAP reporter of 0.107 ng/mL; a Top630nm of 2.44.

B1: R1-C7 (VHH)
VHH: QVQLQESGGGPVQAEGSLRLSCTASGNLYRDPCMGWFRQAPGKDREGVAAMNTGADSTFYARSVKGRFTISHDNAKNTLYLQMNSVKPEDTAMYYCAASRYCTERTWTWRYDYDYWGQGTQVTVSS
For the molecule B1, the ELISA OD in assay [1] came to 1; in assay [3], 0.819.

B2: Rap-A10 (VHH)
VHH: QVQLQESGGGLVQAGGSLKLSCAASGYTYGPYCMGWFRQFPGKEREGVAAVGGDGRTWYGNSVKGRFTISQDNAKKTLYLQINALKPEDTAMYYCAADFDRTVCSDDIYDYTYRGQGTQVTVSS
Consider B2, for which the ELISA OD in assay [2] turned out to be 1.83; in assay [4], 1.57.

B3: R1-F9 (VHH)
VHH: QVQLQESGGGSVQAGETLRLSCTASGFTVHDMGWYRQAPGNECELVSTISSDGSTYYADSVKGRFTISQDNAKNTVYLQMNSLKPEDTAVYYCAADHFTGLQLAECKADFGYWGQGTQVTVSS
For the molecule B3, the ELISA OD in assay [1] is 2.04; in [3], 1.63.

B4: R1-A12 (VHH)
VHH: QVQLQESGGGPVQAGGSLRLSCSASTTAYDNACMGWFRQAPGKEREGVASIHLRDRTYYADSVKGRFTLSRDGASKTLYLQMNSLKPEDSGTYYCASSNICNGLNLQGNTYWGQGTQVTVSS
Consider B4, for which the ELISA OD is 2.71 in [1] and 2.64 in assay [3].

B5: Rap-C10 (VHH)
VHH: QVQLQESGGGSVQPGGSLRLSCAASGFTYIPAYMGWFRQAPGKERERVASISSTDGSTTYADSVKGRFTVSQDTAKNTLYLQMNSLKPEDTAMYYCAAYQFGAFRVWGQGTQVTVSS
With B5, the ELISA OD worked out at 1.85 in assay [2] and 1.58 in [4].

B6: R1-E12 (VHH)
VHH: QVQLQESGGGSVQAGGSLRLSCVASGTTMSMNYMAWFRQAPGKEREGVASIFRSTHYADSVKGRFTIAEDSAKNTVYLQMNSLKPEDTAVYYCAAGRTKPYLTPLAESQYNYWGQGIQVTVSS
Regarding B6, the ELISA OD in assay [1] worked out at 2.76; in assay [3] it was 2.71.

B7: Wio-02-01 (R1-A12-GGGGS-Rap-A10) (bispecific antibody)
chain: QVQLQESGGGPVQAGGSLRLSCSASTTAYDNACMGWFRQAPGKEREGVASIHLRDRTYYADSVKGRFTLSRDGASKTLYLQMNSLKPEDSGTYYCASSNICNGLNLQGNTYWGQGTQVTVSSGGGGSQVQLQESGGGLVQAGGSLKLSCAASGYTYGPYCMGWFRQFPGKEREGVAAVGGDGRTWYGNSVKGRFTISQDNAKKTLYLQINALKPEDTAMYYCAADFDRTVCSDDIYDYTYRGQGTQVTVSS
In the case of B7, in assay [7], the “SEAP reporter OD, supernatant 5X” value was 2.13 and the “SEAP reporter OD, supernatant 25X” value is 1.92. This molecule also had an EC50 in [8] of 1.87 ng/mL. Also, in assay [9], the ELISA OD is 2.14 and 2.26.

B8: Rap-F11 (VHH)
VHH: QVQLQESGGGSVQPGGSLRLSCAASGFTYIPAYMGWFRQAPGKERERVASIKTDGSTTYADSVNGRFTIAQDTAKNTLYLQMDSLKPEDTAMYYCAAYQFGAFRVWGQGTQVTVSS
As for B8, the ELISA OD was 2 in assay [2] and 1.58 in [4].

The term EC50 denotes the concentration that produces a half-maximal response.
